Starred links: 1 amine or outer side, 2 acyl side, 3 side chain; linkers in the order of their positions; H or OH if unused. Positions of bridges follow the written chain, without caps; N, C: chain ends. Non-standard residues stand in square brackets, D forms with d. No end group written: not given here. X2 = (2S,4S)‑4‑(4-ferrocenyl-1H-1,2,3-triazol-1-yl)pyrrolidine‑2‑carboxylic acid, O=C([C@@H]1C[C@H](n2cc(-[c-]3cccc3)nn2)CN1[*:1])[*:2].[Fe+2].c1cc[cH-]c1; X3 = (2S,4S)‑4‑(4-ferrocenyl-1H-1,2,3-triazol-1-yl)proline, O=C([C@@H]1C[C@H](n2cc(-[c-]3cccc3)nn2)CN1[*:1])[*:2].[Fe+2].c1cc[cH-]c1; Pro(cis-4-Trz(4-CH2CH2Ph)) = O=C(O)[C@@H]1C[C@H](n2cc(CCc3ccccc3)nn2)CN1; Bta = N[C@@H](Cc1csc2ccccc12)C(=O)O; Gly(cPr) = N[C@H](C(=O)O)C1CC1; Nle = CCCC[C@H](N)C(=O)O; Orn = NCCC[C@H](N)C(=O)O; Dab = NCC[C@H](N)C(=O)O
Experiments:
[1] = target: T1, HIV-1 JR-FL envelope (gp120) on JR-FL pseudotyped virus (HIV-1 (JR-FL)); assay: cell-based or functional assay
[2] = target: HIV-1 BaL.01 envelope on BaL.01 pseudotyped virus (HIV-1 (BaL.01)); assay: cell-based or functional assay
[3] = target: T2, HIV-1 YU-2 gp120 (wild-type gp120YU-2, monomeric) (HIV-1 (YU-2), UniProt P35961 32-498); assay: SPR competition, sCD4 inhibition: inhibition of gp120 binding to immobilized sCD4
T2 construct: domain: gp120; only gp120 stood in the assay

[4] = target: T2, HIV-1 YU-2 gp120 (wild-type gp120YU-2, …); assay: SPR competition, 17b inhibition: inhibition of gp120 binding to immobilized mAb 17b
[5] = target: T1, HIV-1 JR-FL envelope (gp120) on JR-FL …; assay: cell-based or functional assay; remark: listed apart in the source
[6] = target: T2, HIV-1 YU-2 gp120 (wild-type gp120YU-2, …); assay: SPR competition binding assay on gp120
[7] = target: T2, HIV-1 YU-2 gp120 (wild-type gp120YU-2, …); assay: >
[8] = target: T2, HIV-1 YU-2 gp120 (wild-type gp120YU-2, …); assay: SPR competition: fixed 250 nM HIV-1 YU-2 gp120 with increasing peptide passed over immobilized sCD4; inhibition of gp120 binding to sCD4
[9] = target: T2, HIV-1 YU-2 gp120 (wild-type gp120YU-2, …); assay: SPR competition: fixed 250 nM HIV-1 YU-2 gp120 with increasing peptide passed over immobilized mAb 17b; inhibition of gp120 binding to 17b
[10] = target: T2, HIV-1 YU-2 gp120 (wild-type gp120YU-2, …); assay: SPR competition on gp120; which of sCD4 or 17b is not said
[11] = target: T2, HIV-1 YU-2 gp120 (wild-type gp120YU-2, …); assay: SPR competition (Biacore 3000): 250 nM gp120 YU-2 with increasing peptide over immobilised sCD4
[12] = target: T2, HIV-1 YU-2 gp120 (wild-type gp120YU-2, …); assay: SPR competition (Biacore 3000): 250 nM gp120 YU-2 with increasing peptide over immobilised mAb 17b
[13] = target: T2, HIV-1 YU-2 gp120 (wild-type gp120YU-2, …); assay: SPR competition: fixed 250 nM HIV-1 YU-2 gp120 with increasing peptide passed over immobilized sCD4; inhibition of gp120 binding to sCD4; remark: listed apart in the source
[14] = target: T2, HIV-1 YU-2 gp120 (wild-type gp120YU-2, …); assay: SPR competition: fixed 250 nM HIV-1 YU-2 gp120 with increasing peptide passed over immobilized mAb 17b; inhibition of gp120 binding to 17b; remark: listed apart in the source
[15] = target: T2, HIV-1 YU-2 gp120 (wild-type gp120YU-2, …); assay: SPR competition (Biacore 3000): 250 nM gp120 YU-2 with increasing peptide over immobilised sCD4; inhibition of CD4 binding to gp120
[16] = target: T2, HIV-1 YU-2 gp120 (wild-type gp120YU-2, …); assay: SPR competition (Biacore 3000): 250 nM gp120 YU-2 with increasing peptide over immobilised mAb 17b; inhibition of mAb 17b binding to gp120
[17] = target: T2, HIV-1 YU-2 gp120 (wild-type gp120YU-2, …); assay: SPR competition: fixed 250 nM HIV-1 YU-2 gp120 with increasing peptide passed over immobilized sCD4; inhibition of gp120 binding to sCD4; remark: listed apart in the source

B1: AAR024b (peptide)
peptide: IENI[X3]WK-NH2
modifications: lactam 2-7
notes: Ferrocenyl analogue of AAR024
In the case of B1, the “IC50, HIV-1 infection inhibition, JR-FL pseudotyped virus” value [1] is reported as 603 nM, the “IC50, HIV-1 infection inhibition, Bal.01 pseudotyped virus” value [2] is reported as 650 nM and the IC50 [3] is reported as 40 nM. It also gave an IC50 [4] of 37.6 nM.

B2: AAR029E (peptide)
peptide: DNI[X2][Bta]K-NH2
modifications: lactam 1-6
B2 was tested, and the “IC50, HIV-1 infection inhibition, Bal.01 pseudotyped virus” value [2] was 26 nM, the IC50 [3] was roughly 20 nM and the IC50 [4] was roughly 20 nM.

B3: AAR029b (peptide)
peptide: DNI[X2]WK-NH2
modifications: lactam 1-6
notes: Ferrocenyl analogue of AAR029
B3 was tested, and the “gp120 shedding EC50 (JR-FL pseudotyped virus, Western blot densitometry of supernatant)” value [5] was 316 nM, the “IC50, HIV-1 infection inhibition, JR-FL pseudotyped virus” value [1] was 190 nM and the “IC50, HIV-1 infection inhibition, Bal.01 pseudotyped virus” value [2] was 210 nM. It also gave an IC50 [3] of 32 nM and an IC50 [4] of 35 nM.

B4: AAR029F (peptide)
peptide: DNI[(2S,4S)‑4‑(4-(adamantan-2-yl)-1H-1,2,3-triazol-1-yl)pyrrolidine‑2‑carboxylic acid]WK-NH2
modifications: lactam 1-6
B4 was tested, and the “IC50, HIV-1 infection inhibition, Bal.01 pseudotyped virus” value [2] was roughly 1300 nM, the IC50 [3] was roughly 200 nM and the IC50 [4] was roughly 200 nM.

B5: AAR032 (peptide)
peptide: DNI[Pro(cis-4-Trz(4-CH2CH2Ph))]W[Dab]-NH2
modifications: lactam 1-6; N-terminus assumed
SMILES: CC[C@H](C)[C@@H]1NC(=O)[C@H](CC(N)=O)NC(=O)[C@@H](N)CC(=O)NCC[C@@H](C(N)=O)NC(=O)[C@H](Cc2c[nH]c3ccccc23)NC(=O)[C@@H]2C[C@H](n3cc(CCc4ccccc4)nn3)CN2C1=O
In the case of B5, the “fold improvement vs AAR031” value [6] is reported as roughly 10 fold, the IC50 [3] is reported as 500 nM and the IC50 [4] is reported as 400 nM.

B6: AAR024A (peptide)
peptide: IENI[Pro(cis-4-Trz(4-CH2CH2Ph))]WK-NH2
modifications: N-terminus assumed
SMILES: CC[C@H](C)[C@H](N)C(=O)N[C@@H](CCC(=O)O)C(=O)N[C@@H](CC(N)=O)C(=O)N[C@H](C(=O)N1C[C@@H](n2cc(CCc3ccccc3)nn2)C[C@H]1C(=O)N[C@@H](Cc1c[nH]c2ccccc12)C(=O)N[C@@H](CCCCN)C(N)=O)[C@@H](C)CC
notes: Acyclic (linear) counterpart of AAR024; also called acyclic analogue of AAR024; linear AAR024A
In the case of B6, the “fold less active than AAR024” value [7] is reported as 50 fold, the IC50 [3] is reported as 7890 nM and the IC50 [4] is reported as 11300 nM. The IC50 [8] was 7890 nM and the IC50 [9] was 11300 nM.

B7: AAR029 (peptide)
peptide: DNI[Pro(cis-4-Trz(4-CH2CH2Ph))]WK-NH2
modifications: lactam 1-6
notes: Cyclic hexapeptide triazole; also called minimized hexapeptide AAR029; macrocycle AAR029
B7 was tested, and the “IC50, HIV-1 infection inhibition, JR-FL pseudotyped virus” value [1] was 2330 nM, the “IC50, HIV-1 infection inhibition, Bal.01 pseudotyped virus” value [2] was 2020 nM and the “fold enhanced activity vs AAR029b” value [6] was roughly 2 fold. The “fold more active than AAR029A” value [10] was greater than 200 fold, the IC50 [11] was 85 nM and the IC50 [12] was 96 nM. It also gave an IC50 [13] of 85.2 nM and an IC50 [14] of 95.5 nM.

B8: AAR024 (peptide)
peptide: IENI[Pro(cis-4-Trz(4-CH2CH2Ph))]WK-NH2
modifications: lactam 2-7; N-terminus assumed
SMILES: CC[C@H](C)[C@H](N)C(=O)N[C@H]1CCC(=O)NCCCC[C@@H](C(N)=O)NC(=O)[C@H](Cc2c[nH]c3ccccc23)NC(=O)[C@@H]2C[C@H](n3cc(CCc4ccccc4)nn3)CN2C(=O)[C@H]([C@@H](C)CC)NC(=O)[C@H](CC(N)=O)NC1=O
notes: Cyclic peptide triazole; also called cyclic heptapeptide AAR024
B8 was tested, and the “fold more active than the linear AAR024A” value [10] was greater than 40 fold, the IC50 [15] was 138 nM and the IC50 [16] was 269 nM.

B9: AAR026 (peptide)
peptide: ENNI[Pro(cis-4-Trz(4-CH2CH2Ph))]WK-NH2
modifications: lactam 1-7; N-terminus assumed
SMILES: CC[C@H](C)[C@@H]1NC(=O)[C@H](CC(N)=O)NC(=O)[C@H](CC(N)=O)NC(=O)[C@@H](N)CCC(=O)NCCCC[C@@H](C(N)=O)NC(=O)[C@H](Cc2c[nH]c3ccccc23)NC(=O)[C@@H]2C[C@H](n3cc(CCc4ccccc4)nn3)CN2C1=O
notes: Cyclic peptide triazole
In the case of B9, the IC50 [3] is reported as 541 nM, the IC50 [11] is reported as 540 nM and the IC50 [12] is reported as 384 nM. The IC50 [17] was 541 nM.

B10: AAR036 (peptide)
peptide: DN[Nle][X2]WK-NH2
modifications: lactam 1-6
B10 showed an IC50 [3] of roughly 2000 nM and an IC50 [4] of roughly 2000 nM.

B11: AAR042 (peptide)
peptide: DN[Gly(cPr)][X2]WK-NH2
modifications: lactam 1-6
Binder B11 has an IC50 [3] of roughly 2000 nM and an IC50 [4] of roughly 2000 nM.

B12: AAR029H (peptide)
cyclic peptide: DNI[(2S,4S)‑4‑(4-(4-ethylphenyl)-1H-1,2,3-triazol-1-yl)pyrrolidine‑2‑carboxylic acid]WK-NH2
modifications: lactam 1-6
With B12 the “IC50, HIV-1 infection inhibition, Bal.01 pseudotyped virus” value [2] was roughly 1900 nM, the IC50 [3] was roughly 318 nM and the IC50 [4] was roughly 245 nM.

B13: AAR031 (peptide)
peptide: DNI[Pro(cis-4-Trz(4-CH2CH2Ph))]W[Orn]-NH2
modifications: lactam 1-6; N-terminus assumed
SMILES: CC[C@H](C)[C@@H]1NC(=O)[C@H](CC(N)=O)NC(=O)[C@@H](N)CC(=O)NCCC[C@@H](C(N)=O)NC(=O)[C@H](Cc2c[nH]c3ccccc23)NC(=O)[C@@H]2C[C@H](n3cc(CCc4ccccc4)nn3)CN2C1=O
Binder B13 has an IC50 [3] of 5700 nM and an IC50 [4] of 3900 nM.

B14: AAR030 (peptide)
peptide: ENI[Pro(cis-4-Trz(4-CH2CH2Ph))]W[Dab]-NH2
modifications: lactam 1-6
notes: also called macrocycle AAR030
In the case of B14, the IC50 [3] is reported as greater than 20000 nM and the IC50 [4] is reported as greater than 20000 nM.

— patent US20190175688A1 (DREXEL UNIVERSITY, published 2019)
